The record followed here is patent CN113999303A (BEIJING GENESEE BIOLOGICAL TECH CO LTD, dated 2022).

For the test, the target named is T1, 新型冠状病毒核衣壳蛋白 (SARS-COV-2, UniProt P0DTC9 1-419).
T1 construct: also called SARS-COV-2 nucleocapsid protein; N protein
Description: ELISA screening of mouse hybridomas for antigen-specific antibodies.

B1: 新型冠状病毒核衣壳抗体 mAb#9 (antibody, V domains shown)
VH: EVQLVESGGGLVKPGGSLKLSCAASGITFSDYYMYWVRQTPEKRLEWVATISDGGSYTYYPDSVKGRFTISRDNAKNNLYLQMSSLKSEDTAMYYCVRDKSMGFGAWFAYWGQGTLVTVSA
VL: EIVLTQSPTTMAASPGEKITITCSASSSISSNYLHWYQQRPGFSPKLLIYRTSNLASGVPARFSGSGSGTSYSLTIGTMEAEDVATYYCQQGHSIPYTFGGGTKLEIK
notes: also called 第二新型冠状病毒核衣壳蛋白抗体
As for B1, the binding result was “binds”.
